Reference: the nanobody polyreactivity screen of Harvey et al. (2022)

Test: yeast display, Sf9 membrane polyspecificity reagent, FACS + sequencing; frameworks hold sequencing errors
How it was run: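 Nanobodies from a synthetic yeast display library (Saccharomyces cerevisiae BJ5465), induced 36–48 hours with galactose, were stained 1 hour at 4 °C with 10% biotinylated, detergent-solubilized Sf9 membrane reagent, enriched on streptavidin microbeads, then FACS-sorted. Anti-HA (expression) and streptavidin (reagent binding) fluorescence set low and high (top ~1%) gates. Polyreactivity labels come from the gate of origin. Genes were colony-PCR amplified, MiSeq 2 × 250 sequenced and filtered by CDR length.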

Row | Sequence | polyreactivity (PSR sort gate)
1 | QVQLVESGGALVQAGGSLRLSCAASRSIFWINAMGGYRQAPGTERELVADNDVSGGSTYYADTVKGRFTISRDNAKNTVYLKMNSLKPEDTEVYYCAADDYWAYLYYKTSEYDYWGQGTQVTVSS | low polyreactivity
2 | QVQLVESGGGLVQAGGSLRLSCAASVRIFGSNVMGWYRQAPGKERELVAAINWIGGSTYYADSVKGRFTISRDNAKNTVYLQMNSLKPEDTAVYYCARKRYNGRGYVGYYYWGQGTQVTVSS | high polyreactivity
3 | QVQLVESGGGLVQAGGSLRLSCAASGSTFGGYAMGWSRQAPGKERELVARITRSGGRTYYADSVKGRFTISRDNAKNTVYLQMNSLKPEDTAVYYCNKQLLISRQIQYEYWGQGTQVTVSS | low polyreactivity
4 | QVQLVESGGGLVQAGGSLRLSCAASGIIFRYYAMGWYRQAPGKEREFVAAISSSGVRTYYADSVKGRFTISRDNAKNTVYLQMNSLKPEDTAVYYCAAASRANSYRYNYWGQGTQVTVSS | high polyreactivity
5 | QVQLVESGGGLVQAGGSLRLSCAASGRTFYVYAMGWYRQAPGKERELVATITSRGGRTYYADSVKGRFTISRDNAKNTVYLQMNSLKPEDTAVDYCNAAWWKVSYVRQKYFYWGQGTQVTVSS | high polyreactivity
6 | QVQLVESGGGLVQAGGSLRLSCAASGFTFVFYAMGWYRQAPGKERELVAAISSGGGGTYYADSVKGRFTISRDNAKNTVYLQMNSLKPEDTAVYYCNTRYHKVYYGNDYWGQGTQVTVSS | high polyreactivity
7 | QVQLVESGGGLVQAGGSLRLSCAASGFTFQYYAMGWYIQAPGKERELVATITTSGGNTYYADSVKGRFTISRDNAKNTVYLQMNSLKPEDTAVYYCAARRYRASSRGYGYWGQGTQVTVSS | high polyreactivity
8 | QVQLVESVGGLVQARGSLRLSCAASASIFPSYAMGWYIQAPGKERELVAVISWRGGSTYYADSVKGRFTISRDNAKNTVYLQMNRLKPEDTAVYYCAARSWDPKLSTYPFHFNYWGQGTQVTVSS | high polyreactivity
9 | QVQLVESGGGLVQAGGSLRLICAASGSIFRSYAMGWYRPAPGKERELVAAISSGGRTKYADSVKGRLTISRDNAKNTVYLQMNSLKPEDSAVYYCAARSVSATADFHYWGQGTQVTVSS | high polyreactivity
10 | QVQLVESGGGLVQAGGSLRLSCAASGYIFRYYAMGWYRQAPGKERELVAAISRSGGNTYYADSVKGRFTISRDNAMITVYLQMNSLKPEDTAVYYCAVVLSTYSYADYDYWGQGTQVTVSS | high polyreactivity
11 | QFQLVESGGGLVQAGVSLRLSCAASGRIFSLYAMGWYRQAPGKERELVAAISYSGGSTYADSVKGRFTFSRDNAKNTVFLQMNSLKPEDTAVYYCAAEEYLAYAQFDYWGQGTQVTVSS | low polyreactivity
12 | QVQLVESVGGLVQAGGSLRLSCAASGRTFRNNAMGWYRQAPGTEREFVAVISNTGGSTYYADSVKGRFTISRDNAKNTVYLQLNSLKPEDTAVYYCAVRPRYSQYYYWGQGTQVTVSS | high polyreactivity
13 | QVQLVDSGGGLVQARGSLRLSCAASGYNFGNAMGWYRQPPGQEREFVAAISSSGSSTYYADSVKGRFTISRDNAKNTVYLQMNSLKPEDTAVYYCAKSRRSAAPKYDYWGQGTQVTVSS | high polyreactivity
14 | QVQLVESGGGLVQAGGSLRLSCAASGRIFPAYVMGWYRQAPVKERELVATIDNGGGTYYADSVKGRFTISRDNAKNTVYLQMNSLKPEDTAVYYCARDRHVRWGLKMDYWGLGTQVTVSS | low polyreactivity
15 | QVQLVESGGGLVQAGGSLRLSCAASGYTFTHNAIGWYRQAPGKERELVATIRNSGSRTYYADSVKGRFTISRDNGKNTVYLQMNSLKPEDTAVYYCAARLLYRHFGYWGQGTQVTVSS | high polyreactivity
16 | QVQLVESGGGLVQAGGSHRISCAASGLTFFRNAMGWYRQAPGKERELVATITSTSSTNYADSVKGRFTISRDNAKNKVYLQMYSVKPEDTAVYYCNARVYYKYVGRMYYWGQGTQVTVSS | high polyreactivity
17 | QVQLVESGGGLVQAGGSLRLSCDASGFIFRYYDMGWYRQAPGKERELVAAISWRGGRTYYADSVKGRFTISRDNAKNTVYLQMNSLKPEVTAVYYCAAGFSLWTYPKPYGEDSWGQGTQVTVSS | high polyreactivity
18 | QVQLVESVGGLVQAGGSLRLSSAASGFTIVGNTMGWSRQAPGKERELVASINTNGGSTYYADSVKGRFTISRDNAKNTVYLQINSLKPEDTAVYYCNARSWYPYDYWGQGTQVTVSS | low polyreactivity
19 | QVQLVESGGGLVQAGGSLRLSCAASGRTFTPNAMGGYRQAPGKERELVAAIDWRGGRTYYADSVKGRFTISRDNAKNTVYLQMNSLKPEDSAVYYCAARVDGYHYKSAGYSYGVYYWGQGTQVTVSS | low polyreactivity
20 | QVQLVESGGGLVQAGGSLRLSCAASGRIFRRYAMGWYRQAPGKERELVAAINGRGTTTYYADSVKGRFTISRDNAKNTVYLQMNSLKPEDTAVYYCAAENTIRYDREYDYWGQGNQVTVSS | high polyreactivity
21 | QVQLVESGGGLVQAGGSLRLSCAASGITFEPYDMGWYRQAPGKERELVAAISTTGGRTYYADSVKGRFTISRDNAKNTVYLQMNSLKPEDTAVYYCAARYTTRRRYDYWGQGTQVTVSS | high polyreactivity
22 | QVQLVESGGGLVQAGGSLRLSCAASGRTFGRYVMGWYRQAPGKERELVSAISKGGTSTYYADSVKGRFTISRDNAKNTVYLQMISLKPVVTAVYYCAAGSFARYTYVPRYDYWGQGTQVTVSS | high polyreactivity

Row | Sequence | polyreactivity (PSR sort gate)
23 | QVQLVESGGGLVQAGGSLRLSCAASGIIFDYNAMGWYRQAPGKERELVDSIDSGCSTNYADSVKGSFTISRDNAKNTVYLQMNSLKPEDTAVYYCNADDTTVSPWYYYYQSYYWGQGTQVTVSS | low polyreactivity
24 | QVQLVESGGGLVQAGGSLRLSCAASGSIFGTYAMGWYRQAPGKERELVAAISRGGRTYYADSVKGRFTISRDNAKNTVYLQMNSLKPEDTAVYYCAARTVGLRGYYYWGQGTQVTVSS | high polyreactivity
25 | QVQLVESGGGLVQAGGSLRLSCAASGSTFIFYTMGWYRQAPGKERELVAAITSNGGSTYYADSVKGRFTISRDNAKNTVYLQMNSLKPEDTAVYYCARVDRWRRYRYIFSGYDYWGQGTQVTVSS | high polyreactivity
26 | QVQLVESGGGLVQAGGSLRFSCAASGFNFDQNAMGWYRQAPGQERELVAAITRRGGRTYYADSVKGRFTISRDNAKYTVYLQMNSLKPEDTAVYYCAALLPVHHRGYYWGQGTQVTVSS | high polyreactivity
27 | KVQLVESGGGLVHAGGSLRLSCAASGRTLYTNAMGWYRQAPGTERELVAAITSGASTNYADSVKGRFTISRDNAKNTVYLQMNSLKPEDTAVYYCAARTDHLWNARRYDYWGQGTQVTVSS | low polyreactivity
28 | QVQLVESGGGLVQAGGRLRLSCAASGFTFVRNTMGWYRQAPGKDRELVAAISRSGGSTYYADSVKGRFTISRDNAKNTVYLQMNSLKPEDTAVYYCNAYRYLHYDWGQGTQVTVSS | high polyreactivity
29 | QVQLVESGGGLVQAGGSLRLSCAASGFIFQYYAMGWYRQAPGKERELVAAITPSGTSTYYADSVKGRFTISRDNAKNTVYLQMNSLKPEDTAVYYCAVRYYFVDFHSTTGYPYSYDYWGQGTQVTVSS | low polyreactivity
30 | QVQLVESGGGLVQAGGSLRLSCAASGRIFGGYAMGWYRQAPGKERELVAAISNGGSTYYADSVKGRFTISRDNAKNTVYLQMNSLKPEDTAVYYCAARWNWTGYRYDHWGQGTQVTVSS | low polyreactivity
31 | QVQLVESGGGLVQAGGSLRLSCAASGSIFRYYAMGWYRQAPGKERELVARISWRAGSTYADSVKGRFTISRDNAKNTVYLQMNSLKPEDTAVYYCNADAHKYSWVGTSEYEYWGQGTQVTVSS | high polyreactivity
32 | QVQLVESGGGLVQAGGSLRLSCAASGGIFTINAMGWYRQAPGKERELVAAITYGGTSTNYADSVKGRFTISRDNAKNTVYLQMNSLKPEDTAVYYCAKLPNLPGDYWGQGTQVTVSS | low polyreactivity
33 | QVQLVESGGGLVQAGGSLRLSCAASGSIFFTNVMGWYRQAPGKEREFVAAITGGGGSTYYADSVKGRFTISRDNAKNTVYLQMNSLKPEDTAVYYCATKAKPRSGYNYWGQGTQVTVSS | low polyreactivity
34 | QVQLVESGGGLVQAGGSLRLSCAASGRIFDWNTMGRYRQAPGKERELVAAISYEGSTYYADSVKGRFTISRDNAKNTVYLQMNSLKPEDTAVFYCNAYPLTQYFAQGYDYWGQGTQVTVSS | low polyreactivity
35 | QVQLVESGGGLVQAGGSLRLSCAASGYTFGYNVMGWYRQAPGKERELVAVISSGGTTYYADSVKGRFTISRDNAKNTVYLQMNSLKPEDTAVYYCNKRSAYKYRTHYGYYYWGQGTQVTVSS | high polyreactivity
36 | QVQLVESGGGLVQAGGSLRLSCAASGSIFGYYALGWYRQAPGKERELVAAISRSGGSTYYADSVKGRFTISRDNAKNTVYLQMNSLKPEDTAVYYCAADDYPYGNYYWGQGTQVTVSS | high polyreactivity
37 | QVQLVESGGGLVQAGGSLRLSCAASGSTFVGNAMGWYRQAPGKERELVATMSNSGGRTYYADSVKGRFTISRDNAKNSVYLQMNSLKPEDTAVYFCNAQFDLTFRGTGDYWGQGTQVTVSS | low polyreactivity
38 | QVQLVESGGGLVQAGGSLRLSCAASGRTFSAYAMGWYRQATGQERELVAAISRSGGSTYYADSVKGRFTISRDNAKNTVYLQMNSLKPEDTAVYYCAAKGGSGLYNWGQGTQVTVSS | high polyreactivity
39 | QVQLVESGGGLVQAGGSLRLSCPASGSIFNSYAMGWYRQAPGKERELVAAISSGGSTNYADSVKGRFTISRDNAKNTVYLQMNSLKPEDTAVYYCAKGSRKSGYKYYHGRVWFGYWGQGTQVTVSS | high polyreactivity
40 | QVQLVESGGGLVQAGGSLRLSCAASGIIFRFYAMGWYRQAPGKERELVAAIRTSGGSTYYADSVKGRFTISRDNAKNTVYLQMNSLKPEDTAGYYCAARFYNGWTKHNYWGQGTQVTVSS | high polyreactivity
41 | QVQLVESGGGLVQAGGSLRLSCAASGIIFVRYTMGWYRQAPGKERELVAAISSSGGSTYYADSVKGRFTISRDNAKNTVYLQLNSLKPEDTAVYYCIAEIRDNNVGYDTDYDYWGQGSQVTVSS | high polyreactivity
42 | QVQLVESGGGLVQAGGSLRLSCAASGFTFYRYAMGWYRQAPGKERELVAVITRGGSTNYADSVKGRFTISRDNAKNTVYLQMNSLKPEDTAVYYCAARWFAGDWDYWYDYWGQGTQVTVSS | low polyreactivity
43 | QVQLVESGGGLVQAGGSLRLSCAASGFTFWVYAMGWYRQATGKEREFVASISWTGDTTYYADSVKGRFTISRDNAKNTVYLQMNSLKPEDTAVYYCAVDTILGYDYWGQGTQVTVSS | low polyreactivity
